Literature values, collected in US20260085103A1, “LONG-ACTING INSULIN COMPOUND” (CHENGDU AODA BIOTECHNOLOGY CO., LTD, priority 2022, published 2026).

Key:
[1] = background statement, subcutaneous injection
[2] = after addition of two arginines at the end of the B chain (changed from 5.4)

| Substance | duration of action [1] | half-life [1] [h] | isoelectric point [2] |
| --- | --- | --- | --- |
| insulin degludec | up to 42 hours | 24 | – |
| insulin glargine | 20 to 24 h | 12 | 6.7 |
